In publication PMC4821178 (Insect Biochemistry and Molecular Biology, 2016) one finds EC50 data, which are given here for two molecules.

Usually EC50 stands for the concentration needed to bring the measured effect to its halfway point. Low readings indicate higher potency in that assay, high ones lower potency in that assay.

In experiment [1] the target is human nicotinic acetylcholine receptor α7 subunit with a three amino acid (IIC) deletion in TM4 (human) (UniProt P36544). Put plainly: radioligand binding.
Experiment [2] deals with T1, human nicotinic acetylcholine receptor α7 subunit, wild type (human, UniProt P36544 23-502).
T1 construct: also called Hα7; human α7 nAChR
The experiment can be described thus: radioligand binding. The settings on record: one partner purified.

“[3H]-α-bungarotoxin (from UniProt P60615 22-95) (natural protein)” displayed an EC50 in experiment [1] of 0.9 nM. This counts as sub-nanomolar.

B1: [3H]-α-bungarotoxin (natural protein)
chain: IVCHTTATSPISAVTCPPGENLCYRKMWCDAFCSSRGKVVELGCAATCPSKKPYEEVTCCSTDKCNPHPKQRPG
In experiment [2], B1 gave an EC50 of 20 ± 5.8 nM.
